The record followed here is patent US9090705B2.

In experiment [1] the target is Aspart precursor.
The target in experiment [2] is Lispro precursor.
The target in experiment [3] is Aspart precursor. This is another data set of the same source.
The target in experiment [4] is Glulisine precursor.

Consider Trypsin (enzyme), for which, in experiment [1], the conversion of the precursor by trypsin alone (chromatographic profile after 8 hr) amounted to 45%.
Turning to Carboxypeptidase B (enzyme), the Yield (%) of Lispro, trypsin and Carboxypeptidase B added together in experiment [2] turned out to be 78%. The same substance yielded a Yield (%) of Aspart, trypsin and Carboxypeptidase B added together in experiment [3] of 75%. The Yield (%) of Glulisine, trypsin and Carboxypeptidase B added together in experiment [4] turned out to be 78%.
